Experiments:
CTL-62227 = molecular target: T1, CTL-62227; assay: SPR Carterra, yeast anti-ID
T1 construct: also called odronextamab
Method: (§1) Kinetic analysis was conducted at 25° C. in an HBSTE running buffer system (Carterra Cat #3630) using a Carterra LSA (Carterra USA, Salt Lake City, UT). The sample compartment was maintained at 20° C. for the duration of each experiment.
(§2) For antibody capture experiments, a goat anti-human Fc antibody (Jackson ImmunoResearch) was covalently coupled to an HC30M sensor chip surface via standard amine coupling (1:1 EDC:NHS) and then blocked with ethanolamine (1.0 M, pH 8.5). Covalent coupling steps were performed in 25 mM MES buffer (Carterra, Cat #3625) plus 0.05% Tween20. The anti-CD3 antibodies (100 nM in running buffer) were flowed over discrete regions of interest on the chip surface for 5 minutes. […] Dissociation of the anti-idiotype antibodies was monitored for 300s. Several blank buffer samples were injected over the entire chip surface at the start of each non-regenerative kinetic cycle. The preceding blank buffer injection was used for blank surface subtraction. At the end of each non-regenerative kinetic cycle, all surfaces were regenerated via two 30s injections of 10 mM glycine, pH 1.7.
(§3) For data processing and fitting, sensorgrams were double reference subtracted with a baseline drift correction of 4 RU. Sensorgrams were y-aligned and baseline corrected, filtered and cropped to include only the association and dissociation steps. Data was fitted to a 1:1 binding model using Carterra Kinetics Data Analysis software version 1.7.1.3055.

CTL-62228 = molecular target: T2, CTL-62228; assay: SPR Carterra, yeast anti-ID
T2 construct: also called glofitamab
Method: as §1, §2, §3

CTL-62240 = molecular target: T3, CTL-62240; assay: SPR Carterra, yeast anti-ID
T3 construct: also called ONO-4685
T3 sequence (VH, as listed by the source, chain 1 of 2): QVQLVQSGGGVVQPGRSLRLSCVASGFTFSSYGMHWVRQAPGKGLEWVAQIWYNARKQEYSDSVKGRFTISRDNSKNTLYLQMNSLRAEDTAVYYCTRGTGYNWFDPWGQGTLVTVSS
T3 sequence (VL, as listed by the source, chain 2 of 2): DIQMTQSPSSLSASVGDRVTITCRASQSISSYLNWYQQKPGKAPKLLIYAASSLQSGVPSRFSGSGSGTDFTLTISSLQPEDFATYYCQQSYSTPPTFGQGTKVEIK
Method: as §1, §2, §3

ADI-50024 = molecular target: T4, ADI-50024; assay: SPR Carterra avidity, yeast anti-ID
T4 construct: anti-CD3 antibody made in CHO cells, captured by anti-human Fc
T4 sequence (VH, as listed by the source limits assumed, chain 1 of 2): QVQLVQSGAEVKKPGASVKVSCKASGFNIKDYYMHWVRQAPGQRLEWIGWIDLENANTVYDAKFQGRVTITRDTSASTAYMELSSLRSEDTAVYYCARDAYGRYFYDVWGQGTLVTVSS
T4 sequence (VL, as listed by the source limits assumed, chain 2 of 2): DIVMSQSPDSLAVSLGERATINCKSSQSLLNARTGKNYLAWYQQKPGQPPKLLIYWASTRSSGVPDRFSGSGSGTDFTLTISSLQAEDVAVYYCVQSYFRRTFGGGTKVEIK
Method: as §1, §2, §3

ADI-70326 = molecular target: T5, ADI-70326; assay: SPR Carterra avidity, yeast anti-ID
T5 construct: anti-CD3 antibody made in CHO cells, captured by anti-human Fc
Method: as §1, §2, §3

ADI-70327 = molecular target: T6, ADI-70327; assay: SPR Carterra avidity, yeast anti-ID
T6 construct: anti-CD3 antibody made in CHO cells, captured by anti-human Fc
T6 sequence (VH, as listed by the source limits assumed, chain 1 of 2): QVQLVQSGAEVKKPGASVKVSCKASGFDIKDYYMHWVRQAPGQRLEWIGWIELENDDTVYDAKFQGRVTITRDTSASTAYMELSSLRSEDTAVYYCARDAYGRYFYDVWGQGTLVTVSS
Method: as §1, §2, §3

ADI-70330 = molecular target: T7, ADI-70330; assay: SPR Carterra avidity, yeast anti-ID
T7 construct: anti-CD3 antibody made in CHO cells, captured by anti-human Fc
T7 sequence (VH, as listed by the source limits assumed, chain 1 of 2): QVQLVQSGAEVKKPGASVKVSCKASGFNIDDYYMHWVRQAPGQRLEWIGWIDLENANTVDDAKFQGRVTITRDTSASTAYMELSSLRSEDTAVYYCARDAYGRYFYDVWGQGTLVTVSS
Method: as §1, §2, §3

ADI-26906 IgG = molecular target: T8, ADI-26906 IgG; assay: SPR Carterra avidity, yeast anti-ID
T8 construct: anti-CD3 IgG
Method: as §1, §2, §3

ADI-67450 = molecular target: T9, ADI-67450; assay: SPR Carterra avidity, yeast anti-ID
T9 construct: anti-CD3 antibody made in CHO cells, captured by anti-human Fc
T9 sequence (VH, as listed by the source limits assumed, chain 1 of 2): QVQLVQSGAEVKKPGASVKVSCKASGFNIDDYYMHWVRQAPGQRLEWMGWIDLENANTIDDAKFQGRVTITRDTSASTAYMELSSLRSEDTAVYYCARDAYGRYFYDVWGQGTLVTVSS
T9 sequence (VL, as listed by the source limits assumed, chain 2 of 2): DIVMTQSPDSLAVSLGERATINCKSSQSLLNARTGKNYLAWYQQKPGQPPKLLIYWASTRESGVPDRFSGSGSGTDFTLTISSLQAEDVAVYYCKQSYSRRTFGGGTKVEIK
Method: as §1, §2, §3

ADI-67445 = molecular target: T10, ADI-67445; assay: SPR Carterra avidity, yeast anti-ID
T10 construct: anti-CD3 antibody made in CHO cells, captured by anti-human Fc
Method: as §1, §2, §3

ADI-26909 = molecular target: T11, ADI-26909; assay: SPR Carterra avidity, yeast anti-ID
T11 construct: anti-CD3 antibody made in CHO cells, captured by anti-human Fc
Method: as §1, §2, §3

ADI-26913 IgG = molecular target: T12, ADI-26913 IgG; assay: SPR Carterra avidity, yeast anti-ID
T12 construct: anti-CD3 IgG
Method: as §1, §2, §3

ADI-26919 = molecular target: T13, ADI-26919; assay: SPR Carterra avidity, yeast anti-ID
T13 construct: anti-CD3 antibody made in CHO cells, captured by anti-human Fc
Method: as §1, §2, §3

ADI-26921 IgG = molecular target: T14, ADI-26921 IgG; assay: SPR Carterra avidity, yeast anti-ID
T14 construct: anti-CD3 IgG
Method: as §1, §2, §3

ADI-26916 IgG = molecular target: T15, ADI-26916 IgG; assay: SPR Carterra avidity, yeast anti-ID
T15 construct: anti-CD3 IgG
T15 sequence (VH, as listed by the source, chain 1 of 2): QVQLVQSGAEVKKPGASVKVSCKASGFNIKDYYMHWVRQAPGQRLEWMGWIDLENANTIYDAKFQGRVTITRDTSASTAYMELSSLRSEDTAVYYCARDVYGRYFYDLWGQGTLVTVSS
Method: as §1, §2, §3

ADI-26943 = molecular target: T16, ADI-26943; assay: SPR Carterra avidity, yeast anti-ID
T16 construct: anti-CD3 antibody made in CHO cells, captured by anti-human Fc
T16 sequence (VH, as listed by the source, chain 1 of 2): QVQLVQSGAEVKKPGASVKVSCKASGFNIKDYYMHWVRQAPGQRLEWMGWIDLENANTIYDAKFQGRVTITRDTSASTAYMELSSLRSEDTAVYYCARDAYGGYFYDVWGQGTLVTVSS
T16 sequence (VL, as listed by the source, chain 2 of 2): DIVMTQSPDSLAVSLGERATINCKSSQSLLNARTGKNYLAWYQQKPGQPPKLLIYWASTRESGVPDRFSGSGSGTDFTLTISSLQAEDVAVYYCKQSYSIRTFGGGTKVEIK
Method: as §1, §2, §3

ADI-48576 = molecular target: T17, ADI-48576; assay: SPR Carterra avidity, yeast anti-ID
T17 construct: pH-dependent anti-CD3 antibody made in CHO cells
T17 sequence (VH, as listed by the source, chain 1 of 2): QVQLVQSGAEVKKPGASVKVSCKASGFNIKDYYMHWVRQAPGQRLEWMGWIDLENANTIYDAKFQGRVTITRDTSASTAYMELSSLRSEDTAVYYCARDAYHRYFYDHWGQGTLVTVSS
T17 sequence (VL, as listed by the source, chain 2 of 2): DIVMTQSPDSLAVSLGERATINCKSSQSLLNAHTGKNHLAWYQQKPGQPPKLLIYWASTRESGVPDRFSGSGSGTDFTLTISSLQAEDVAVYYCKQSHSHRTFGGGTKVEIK
Method: as §1, §2, §3

ADI-48587 = molecular target: T18, ADI-48587; assay: SPR Carterra avidity, yeast anti-ID
T18 construct: pH-dependent anti-CD3 antibody made in CHO cells
T18 sequence (VH, as listed by the source, chain 1 of 2): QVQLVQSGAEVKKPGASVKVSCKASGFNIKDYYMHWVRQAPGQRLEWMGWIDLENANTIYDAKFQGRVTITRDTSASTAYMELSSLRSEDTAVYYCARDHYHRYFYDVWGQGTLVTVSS
T18 sequence (VL, as listed by the source, chain 2 of 2): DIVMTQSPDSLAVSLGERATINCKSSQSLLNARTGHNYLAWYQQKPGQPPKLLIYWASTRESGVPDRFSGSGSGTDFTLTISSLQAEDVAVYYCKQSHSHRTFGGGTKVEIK
Method: as §1, §2, §3

ADI-48592 = molecular target: T19, ADI-48592; assay: SPR Carterra avidity, yeast anti-ID
T19 construct: pH-dependent anti-CD3 antibody made in CHO cells
Method: as §1, §2, §3

ADI-48650 = molecular target: T20, ADI-48650; assay: SPR Carterra avidity, yeast anti-ID
T20 construct: pH-dependent anti-CD3 antibody made in CHO cells
Method: as §1, §2, §3

ADI-74965 = molecular target: T21, ADI-74965; assay: SPR Carterra avidity, yeast anti-ID
T21 construct: pH-dependent anti-CD3 antibody made in CHO cells
Method: as §1, §2, §3

ADI-74966 = molecular target: T22, ADI-74966; assay: SPR Carterra avidity, yeast anti-ID
T22 construct: pH-dependent anti-CD3 antibody made in CHO cells
T22 sequence (VL, as listed by the source, chain 2 of 2): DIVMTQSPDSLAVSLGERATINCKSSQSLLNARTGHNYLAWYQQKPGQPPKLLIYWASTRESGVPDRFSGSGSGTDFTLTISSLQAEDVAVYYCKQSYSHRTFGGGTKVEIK
Method: as §1, §2, §3

ADI-74967 = molecular target: T23, ADI-74967; assay: SPR Carterra avidity, yeast anti-ID
T23 construct: pH-dependent anti-CD3 antibody made in CHO cells
T23 sequence (VL, as listed by the source, chain 2 of 2): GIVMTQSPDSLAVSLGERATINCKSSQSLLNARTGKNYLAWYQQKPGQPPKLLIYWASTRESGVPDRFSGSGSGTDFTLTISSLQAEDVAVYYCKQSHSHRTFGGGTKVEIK
Method: as §1, §2, §3

ADI-74968 = molecular target: T24, ADI-74968; assay: SPR Carterra avidity, yeast anti-ID
T24 construct: pH-dependent anti-CD3 antibody made in CHO cells
Method: as §1, §2, §3

ADI-76357 = molecular target: T25, ADI-76357; assay: SPR Carterra avidity, yeast anti-ID
T25 construct: anti-CD3 antibody made in CHO cells, captured by anti-human Fc
T25 sequence (VH, as listed by the source, chain 1 of 2): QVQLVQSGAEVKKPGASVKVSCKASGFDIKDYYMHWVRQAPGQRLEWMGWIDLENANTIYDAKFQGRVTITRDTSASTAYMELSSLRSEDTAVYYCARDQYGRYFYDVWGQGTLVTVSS
Method: as §1, §2, §3

ADI-76358 = molecular target: T26, ADI-76358; assay: SPR Carterra avidity, yeast anti-ID
T26 construct: anti-CD3 antibody made in CHO cells, captured by anti-human Fc
Method: as §1, §2, §3

ADI-76359 = molecular target: T27, ADI-76359; assay: SPR Carterra avidity, yeast anti-ID
T27 construct: anti-CD3 antibody made in CHO cells, captured by anti-human Fc
T27 sequence (VH, as listed by the source, chain 1 of 2): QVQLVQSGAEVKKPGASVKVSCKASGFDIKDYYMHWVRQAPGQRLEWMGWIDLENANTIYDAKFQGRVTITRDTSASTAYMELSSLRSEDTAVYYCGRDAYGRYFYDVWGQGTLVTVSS
T27 sequence (VL, as listed by the source, chain 2 of 2): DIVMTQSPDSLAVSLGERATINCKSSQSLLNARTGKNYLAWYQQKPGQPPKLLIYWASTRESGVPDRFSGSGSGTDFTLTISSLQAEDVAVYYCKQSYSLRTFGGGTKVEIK
Method: as §1, §2, §3

ADI-76360 = molecular target: T28, ADI-76360; assay: SPR Carterra avidity, yeast anti-ID
T28 construct: anti-CD3 antibody made in CHO cells, captured by anti-human Fc
Method: as §1, §2, §3

ADI-76361 = molecular target: T29, ADI-76361; assay: SPR Carterra avidity, yeast anti-ID
T29 construct: anti-CD3 antibody made in CHO cells, captured by anti-human Fc
T29 sequence (VH, as listed by the source, chain 1 of 2): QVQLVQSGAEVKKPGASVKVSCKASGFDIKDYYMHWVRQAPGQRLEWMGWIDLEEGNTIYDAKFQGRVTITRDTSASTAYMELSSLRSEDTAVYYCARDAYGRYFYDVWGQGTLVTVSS
Method: as §1, §2, §3

ADI-76362 = molecular target: T30, ADI-76362; assay: SPR Carterra avidity, yeast anti-ID
T30 construct: anti-CD3 antibody made in CHO cells, captured by anti-human Fc
T30 sequence (VH, as listed by the source, chain 1 of 2): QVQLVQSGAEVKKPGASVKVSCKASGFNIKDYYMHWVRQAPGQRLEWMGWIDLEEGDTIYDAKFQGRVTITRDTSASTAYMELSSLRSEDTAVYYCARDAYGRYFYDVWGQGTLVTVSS
Method: as §1, §2, §3

CTL-62223 = molecular target: T31, CTL-62223; assay: SPR Carterra avidity, yeast anti-ID
T31 construct: also called mosunetuzumab
T31 sequence (VH, as listed by the source, chain 1 of 2): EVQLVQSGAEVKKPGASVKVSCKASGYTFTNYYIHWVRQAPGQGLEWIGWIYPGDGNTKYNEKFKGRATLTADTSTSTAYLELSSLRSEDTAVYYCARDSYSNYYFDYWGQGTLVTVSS
T31 sequence (VL, as listed by the source, chain 2 of 2): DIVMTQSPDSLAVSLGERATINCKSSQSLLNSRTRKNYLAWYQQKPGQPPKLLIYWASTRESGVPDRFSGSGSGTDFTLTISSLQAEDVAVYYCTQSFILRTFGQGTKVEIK
Method: as §1, §2, §3

ADI-67447 = molecular target: T32, ADI-67447; assay: SPR Carterra avidity, yeast anti-ID, *koff limit
T32 construct: anti-CD3 antibody made in CHO cells, captured by anti-human Fc
Method: as §1, §2, §3

ADI-26920 IgG = molecular target: T33, ADI-26920 IgG; assay: SPR Carterra avidity, yeast anti-ID, *koff limit
T33 construct: anti-CD3 IgG
Method: as §1, §2, §3

ADI-26924 = molecular target: T34, ADI-26924; assay: SPR Carterra avidity, yeast anti-ID, *koff limit
T34 construct: anti-CD3 antibody made in CHO cells, captured by anti-human Fc
T34 sequence (VH, as listed by the source, chain 1 of 2): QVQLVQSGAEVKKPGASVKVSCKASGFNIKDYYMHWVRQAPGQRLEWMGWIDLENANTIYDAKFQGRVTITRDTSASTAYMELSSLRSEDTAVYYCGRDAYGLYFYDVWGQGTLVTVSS
Method: as §1, §2, §3

T1 sequence (VH, as listed by the source, chain 1 of 2): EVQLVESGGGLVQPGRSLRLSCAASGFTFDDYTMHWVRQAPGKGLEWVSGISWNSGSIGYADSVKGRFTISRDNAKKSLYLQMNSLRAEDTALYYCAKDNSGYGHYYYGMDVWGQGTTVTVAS
T1 sequence (VL, as listed by the source, chain 2 of 2): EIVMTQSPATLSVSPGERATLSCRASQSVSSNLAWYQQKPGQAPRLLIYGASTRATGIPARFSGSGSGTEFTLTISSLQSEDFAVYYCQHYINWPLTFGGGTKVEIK

B1: ADI-34146 (antibody, V domains shown)
VH: EVQLLESGGGLVQPGGSLRLSCAASGFTFSSYAMSWVRQAPGKGLEWVSTISGSGGSTYYADSVKGRFTISRDNSKNTLYLQMNSLRAEDTAVYYCARLGGRRGSGSSYYYYYGMDVWGQGTTVTVSS
VL: not shown
notes: anti-ID IgG
binding result (CTL-62227): no binding (tested: up to 200 nM)
binding result (CTL-62228): no binding (tested: up to 200 nM)
binding result (CTL-62240): no binding (tested: up to 200 nM)
Kd (ADI-50024): 1.1 nM
Kd (ADI-70326): 3.9 nM
Kd (ADI-70327): 1.7 nM
Kd (ADI-70330): 1.2 nM
Kd (ADI-26906 IgG): 0.63 nM
Kd (ADI-67450): 1.8 nM
Kd (ADI-67445): 0.93 nM
Kd (ADI-26909): 0.64 nM
Kd (ADI-26913 IgG): 0.55 nM
Kd (ADI-26919): 0.35 nM
Kd (ADI-26921 IgG): 0.24 nM
Kd (ADI-26916 IgG): 1.8 nM
Kd (ADI-26943): 0.87 nM
Kd (ADI-48576): 12 nM
Kd (ADI-48587): 0.79 nM
Kd (ADI-48592): 16 nM
Kd (ADI-48650): 3.3 nM
Kd (ADI-74965): 0.75 nM
Kd (ADI-74966): 0.86 nM
Kd (ADI-74967): 0.5 nM
Kd (ADI-74968): 0.41 nM
Kd (ADI-76357): 0.54 nM
Kd (ADI-76358): 2.9 nM
Kd (ADI-76359): 0.39 nM
Kd (ADI-76360): 0.57 nM
Kd (ADI-76361): 0.24 nM
Kd (ADI-76362): 1.4 nM
Kd (CTL-62223): 4.5 nM
Kd (ADI-67447): 0.35 nM
Kd (ADI-26920 IgG): 0.29 nM
Kd (ADI-26924): 0.25 nM

Source: patent publication US20250019439A1 (Adimab, published 2025)
